Experimental data reported in patent publication US20140371080.
pKd: −log10 of the molar value.

Columns and labels:
[1] = tested on: EGFP (Aequorea victoria (engineered)?); conditions: CITED Shui et al. 2012; p76 states 5 and 15 nM by ITC and EMSA respectively; cited from earlier work
[2] = target: EGFP-mOrange fusion (Aequorea victoria / Discosoma sp. (engineered)?) (UniProt P42212); conditions: fluorescence imaging of halted RNA clusters on Illumina GAIIx; 1xPBS, 5 mM MgCl2, 0.01% Tween-20, room temp; published 5.1 nM

Q: With GFP aptamer (canonical, GFPapt) as the substance, how does the pKd [1] read?
A: 8.29

Q: And the pKd [2]?
A: 8.22
